Reference: IntAct's records for PubMed 21385318

B1: Kinase non-catalytic C-lobe domain-containing protein 1 (Mus musculus), Q0KK55 (parent)
chain: MQAMDPASRGFYEEDGKDLDFYDFEPLPTLPEDEENVSLADILSLRDRGLSEQEAWAVCLECSLSMRSVAHAAIFQTLCITPDTLAFNTSGNVCFMEQLSDDPEGAFVPPEFDLTGNTFEAHIYSLGATLKAALEYVPEPELEPKLSTDLEGLLSQMQAEDPRERPDLASIIALCEEKMQPVSSCRLCRSLSAIGRRVLSIESFGAFQELSENTWRGRPAPRNVGPKKMPGDLSTDPEALFPSKGLLQPPASRDAEQEAGQRPRAPSPKPLLSAPVRNGENPGQEGLADLVLDARCPLGELDRDNLRRSRLKKAQTFPRLLQESTETSTLCLSLNGSRNQLAISEFFPPDPRKLFLEGKNGLSGFKTQSKSRLWPEQEPGVQLDKTPGAGRNPHRSPGASGQLEASSPSQGSVEYKPSPSPVDAGDSDHEGHIPRSEEKIPEESRQPGSTATEQSLSLKDLLSKLGRPFREYELWALCLSCLSTLQTHKEHPAHLCLDNVLVAEDGTVFFGPPPANGAYNSLFLAPEVSEEKLVTEKASVYCVAAVLWTAAKFSVPRDHKLALPRRLKTLLLDMARRHASERPSAAEAIKVCSSYLLQRGMDSSKILAHLRASTCKVHPEEETIGLQNAFSVVELKSTTAPAPESSPGFLQVSNDTKLVAVPGPVPGLPPCCKEACELPAAFTSEATHFKPIVLAQDASVTRDQLALPSESNEKPKEGSGHLDREGTRKQAALELVEATDLKMSNQLSPGPELQGATPDPDGDSGSPSSATECSCPHGPALVTQQKGTSGTPSSPASSLPPEHRPDGEGPLGTTVLPGPTSASQGSRHPCKPPRGKAAASPSSPRGSDGHPEKPRPADRKLCPSSVDTSSPPKMTACPSLQEAMRLIQEEFAFDGYMDNGLEALIMGEYIYALKDLTFATFCGAISEKFCDLYWDEQLLKNLFKVVNGPASPSESTSEEPGSQPEHSPSRCSLSSKRPSLHGLGKEKPATTWGSGGPCSPTALSDIDSDTLSQGNFEVGFRSQKSIKVTREQQPEAEVGGQPGPSQDSTSHASDTVARLARSEDGGPAGSPGASDFQNCSPGWSSAFYEADCFGADVYNYVKDLERQKTNGHTELEAQSPELEQQLMIEKRNYRKTLKFYQKLLQKEKRNKGSEVRTMLSKLRGQLDEMKSKVQFLSLVKKYLQVMYAERWGLEPCALPVIVNIAAAPCDTLDFSPLDESSSLIFYNVNKHPGSGRQKKARILQAGTPLGLMAYLYSSDAFLEGYVQQFLYTFRYFCTPHDFLHFLLDRISSTLSRAHQDPTSTFTKIYRRSLCVLQAWVEDCYTVDFIRNAGLLGQLEDFISSKILPLDGTAEHLLALLEVGTERRADSASRGADLEDPKEAEEDTRPFNALCKRFSEDGITRKSFSWRLPRGNGLVLPHHKERQYTIASALPKPCFFEDFYGPYAKASEKGPYFLTEYSTNQLFTQLTLLQQELFQKCHPVHFLNSRALGVMDKSAAIPKASSSESLSAKTCSLFLPNYVQDKYLLQLLRNADDVSTWVAAEIVTSHTSKLQVNLLSKFLLIAKSCYEQRNFATAMQILGGLEHLAVRQSPAWRILPAKIAEVMEELKAVEVFLKSDSLCLMEGRRFRAQPTLPSAHLLAMHIQQLETGGFTMTNGAHRWSKLRNIAKVASQVHAFQENPYTFSPDPKLQAHLKQRIARFSGADVSILAADNRANFHQIPGEKHSRKIQDKLRRMKATFQ

Variants of: B1
Details: with mtap2_mouse Map2, P20357
Sequence of mtap2_mouse Map2, P20357 (P20357 whole entry): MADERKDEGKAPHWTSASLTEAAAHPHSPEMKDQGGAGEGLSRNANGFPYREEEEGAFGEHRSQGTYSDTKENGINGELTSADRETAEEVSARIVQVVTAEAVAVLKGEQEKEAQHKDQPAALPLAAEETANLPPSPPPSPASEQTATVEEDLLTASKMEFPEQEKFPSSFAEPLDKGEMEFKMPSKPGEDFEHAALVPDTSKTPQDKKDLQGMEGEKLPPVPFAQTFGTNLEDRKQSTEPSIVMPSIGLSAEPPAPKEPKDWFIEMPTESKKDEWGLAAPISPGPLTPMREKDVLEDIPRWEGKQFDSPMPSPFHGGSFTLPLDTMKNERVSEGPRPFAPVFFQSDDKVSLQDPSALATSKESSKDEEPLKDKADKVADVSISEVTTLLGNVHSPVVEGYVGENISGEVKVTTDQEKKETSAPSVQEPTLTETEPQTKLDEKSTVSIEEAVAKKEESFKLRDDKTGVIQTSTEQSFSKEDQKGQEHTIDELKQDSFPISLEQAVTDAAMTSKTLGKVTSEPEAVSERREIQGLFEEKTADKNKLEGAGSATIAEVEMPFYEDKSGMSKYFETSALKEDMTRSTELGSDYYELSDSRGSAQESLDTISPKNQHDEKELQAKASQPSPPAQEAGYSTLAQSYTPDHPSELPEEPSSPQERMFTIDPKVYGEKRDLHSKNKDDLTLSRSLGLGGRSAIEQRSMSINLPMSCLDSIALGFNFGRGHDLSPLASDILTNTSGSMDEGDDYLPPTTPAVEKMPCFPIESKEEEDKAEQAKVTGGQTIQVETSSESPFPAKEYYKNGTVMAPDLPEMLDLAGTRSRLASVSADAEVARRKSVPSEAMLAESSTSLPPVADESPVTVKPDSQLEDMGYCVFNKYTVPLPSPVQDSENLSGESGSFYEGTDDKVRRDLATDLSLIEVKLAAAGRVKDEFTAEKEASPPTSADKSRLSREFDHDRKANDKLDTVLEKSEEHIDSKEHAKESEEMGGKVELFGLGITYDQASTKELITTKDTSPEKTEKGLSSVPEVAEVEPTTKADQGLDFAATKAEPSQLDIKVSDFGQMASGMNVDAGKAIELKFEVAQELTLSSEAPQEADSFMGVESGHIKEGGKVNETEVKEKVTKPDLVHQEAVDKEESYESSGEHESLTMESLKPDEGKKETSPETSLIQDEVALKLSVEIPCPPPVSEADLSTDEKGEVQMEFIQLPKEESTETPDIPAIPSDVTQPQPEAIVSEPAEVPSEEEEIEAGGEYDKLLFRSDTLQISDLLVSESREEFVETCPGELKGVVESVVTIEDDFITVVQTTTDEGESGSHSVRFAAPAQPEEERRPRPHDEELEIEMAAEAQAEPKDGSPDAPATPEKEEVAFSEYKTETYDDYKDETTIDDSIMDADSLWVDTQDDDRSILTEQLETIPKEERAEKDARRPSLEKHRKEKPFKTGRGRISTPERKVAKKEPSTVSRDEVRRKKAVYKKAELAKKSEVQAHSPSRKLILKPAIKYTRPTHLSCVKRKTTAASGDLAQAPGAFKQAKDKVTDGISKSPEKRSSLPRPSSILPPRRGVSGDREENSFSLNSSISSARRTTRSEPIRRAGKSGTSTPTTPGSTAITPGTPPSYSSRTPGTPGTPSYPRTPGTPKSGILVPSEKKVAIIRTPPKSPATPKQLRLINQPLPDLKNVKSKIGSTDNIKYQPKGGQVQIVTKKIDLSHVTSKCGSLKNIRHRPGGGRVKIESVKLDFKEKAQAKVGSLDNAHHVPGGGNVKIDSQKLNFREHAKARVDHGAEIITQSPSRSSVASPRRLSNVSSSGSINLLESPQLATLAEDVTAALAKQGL

| effect of a mutation on the interaction | Variant |
| --- | --- |
| disrupting interaction | L474A |

Variants of: B1
Details: with mtap2_mouse Map2, P20357
Remark: another data set of the same source

| effect of a mutation on the interaction | Variant |
| --- | --- |
| disrupting interaction | L461A |

Variants of: B1
Details: with mtap2_mouse Map2, P20357
Remark: another data set of the same source

| effect of a mutation on the interaction | Variant |
| --- | --- |
| disrupting interaction | L477A |
